Residue numbers refer to the chain shown, from its start.
Tests used:
YFP-NEDD4, P46934 = target: T1, YFP-NEDD4, P46934; test: bead binding assay, fluorescence microscopy of YFP-NEDD4 on ALFA-TXNIP beads; conditions: chain shown with the change, value is the box-plot median, n = 40 beads, lysate of HEK293T cells over-expressing YFP-NEDD4, ctrl beads est. 20, parent: est. 38, read off a plot
T1 chain: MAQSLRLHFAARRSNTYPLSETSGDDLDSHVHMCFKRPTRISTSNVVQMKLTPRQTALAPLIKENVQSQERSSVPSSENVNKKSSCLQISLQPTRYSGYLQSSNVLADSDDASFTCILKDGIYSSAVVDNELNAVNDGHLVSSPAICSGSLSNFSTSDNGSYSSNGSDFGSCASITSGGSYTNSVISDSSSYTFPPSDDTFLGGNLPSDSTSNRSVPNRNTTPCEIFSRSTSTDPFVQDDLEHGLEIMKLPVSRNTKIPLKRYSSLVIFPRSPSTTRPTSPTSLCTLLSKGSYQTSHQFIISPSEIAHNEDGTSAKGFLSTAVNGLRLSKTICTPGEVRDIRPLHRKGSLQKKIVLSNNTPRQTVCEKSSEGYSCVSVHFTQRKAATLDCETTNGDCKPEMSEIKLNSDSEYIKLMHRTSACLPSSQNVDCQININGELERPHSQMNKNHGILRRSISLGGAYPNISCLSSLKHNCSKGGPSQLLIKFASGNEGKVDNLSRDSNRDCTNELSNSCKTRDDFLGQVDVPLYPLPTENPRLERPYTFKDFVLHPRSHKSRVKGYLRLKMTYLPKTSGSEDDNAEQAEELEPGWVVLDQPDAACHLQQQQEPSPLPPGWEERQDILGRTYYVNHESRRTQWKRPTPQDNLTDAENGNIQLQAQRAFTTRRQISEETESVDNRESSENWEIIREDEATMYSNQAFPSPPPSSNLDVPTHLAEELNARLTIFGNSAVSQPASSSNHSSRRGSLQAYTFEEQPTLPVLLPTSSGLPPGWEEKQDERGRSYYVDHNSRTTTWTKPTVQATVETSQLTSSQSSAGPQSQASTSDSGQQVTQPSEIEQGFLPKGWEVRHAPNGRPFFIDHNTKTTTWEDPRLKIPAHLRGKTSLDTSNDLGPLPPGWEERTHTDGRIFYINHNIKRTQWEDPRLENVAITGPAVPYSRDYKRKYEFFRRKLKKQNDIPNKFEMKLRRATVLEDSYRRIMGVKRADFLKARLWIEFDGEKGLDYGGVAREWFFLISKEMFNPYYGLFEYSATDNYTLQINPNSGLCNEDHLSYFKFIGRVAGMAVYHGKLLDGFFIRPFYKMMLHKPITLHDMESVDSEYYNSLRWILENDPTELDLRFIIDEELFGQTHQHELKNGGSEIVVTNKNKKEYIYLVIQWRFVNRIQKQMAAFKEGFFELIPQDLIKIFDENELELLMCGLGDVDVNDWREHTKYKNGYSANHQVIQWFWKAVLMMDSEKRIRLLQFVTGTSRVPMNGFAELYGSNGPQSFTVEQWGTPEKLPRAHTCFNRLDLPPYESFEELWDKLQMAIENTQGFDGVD

[1] = target: T2, HECW1, endogenous in HEK293T, Q76N89; test: co-immunoprecipitation of ALFA-TXNIP, label-free quantitative interactome (mass spectrometry); conditions: chain shown with the change, immunoprecipitated from HEK293T cells, n = 3, read off a plot
T2 chain: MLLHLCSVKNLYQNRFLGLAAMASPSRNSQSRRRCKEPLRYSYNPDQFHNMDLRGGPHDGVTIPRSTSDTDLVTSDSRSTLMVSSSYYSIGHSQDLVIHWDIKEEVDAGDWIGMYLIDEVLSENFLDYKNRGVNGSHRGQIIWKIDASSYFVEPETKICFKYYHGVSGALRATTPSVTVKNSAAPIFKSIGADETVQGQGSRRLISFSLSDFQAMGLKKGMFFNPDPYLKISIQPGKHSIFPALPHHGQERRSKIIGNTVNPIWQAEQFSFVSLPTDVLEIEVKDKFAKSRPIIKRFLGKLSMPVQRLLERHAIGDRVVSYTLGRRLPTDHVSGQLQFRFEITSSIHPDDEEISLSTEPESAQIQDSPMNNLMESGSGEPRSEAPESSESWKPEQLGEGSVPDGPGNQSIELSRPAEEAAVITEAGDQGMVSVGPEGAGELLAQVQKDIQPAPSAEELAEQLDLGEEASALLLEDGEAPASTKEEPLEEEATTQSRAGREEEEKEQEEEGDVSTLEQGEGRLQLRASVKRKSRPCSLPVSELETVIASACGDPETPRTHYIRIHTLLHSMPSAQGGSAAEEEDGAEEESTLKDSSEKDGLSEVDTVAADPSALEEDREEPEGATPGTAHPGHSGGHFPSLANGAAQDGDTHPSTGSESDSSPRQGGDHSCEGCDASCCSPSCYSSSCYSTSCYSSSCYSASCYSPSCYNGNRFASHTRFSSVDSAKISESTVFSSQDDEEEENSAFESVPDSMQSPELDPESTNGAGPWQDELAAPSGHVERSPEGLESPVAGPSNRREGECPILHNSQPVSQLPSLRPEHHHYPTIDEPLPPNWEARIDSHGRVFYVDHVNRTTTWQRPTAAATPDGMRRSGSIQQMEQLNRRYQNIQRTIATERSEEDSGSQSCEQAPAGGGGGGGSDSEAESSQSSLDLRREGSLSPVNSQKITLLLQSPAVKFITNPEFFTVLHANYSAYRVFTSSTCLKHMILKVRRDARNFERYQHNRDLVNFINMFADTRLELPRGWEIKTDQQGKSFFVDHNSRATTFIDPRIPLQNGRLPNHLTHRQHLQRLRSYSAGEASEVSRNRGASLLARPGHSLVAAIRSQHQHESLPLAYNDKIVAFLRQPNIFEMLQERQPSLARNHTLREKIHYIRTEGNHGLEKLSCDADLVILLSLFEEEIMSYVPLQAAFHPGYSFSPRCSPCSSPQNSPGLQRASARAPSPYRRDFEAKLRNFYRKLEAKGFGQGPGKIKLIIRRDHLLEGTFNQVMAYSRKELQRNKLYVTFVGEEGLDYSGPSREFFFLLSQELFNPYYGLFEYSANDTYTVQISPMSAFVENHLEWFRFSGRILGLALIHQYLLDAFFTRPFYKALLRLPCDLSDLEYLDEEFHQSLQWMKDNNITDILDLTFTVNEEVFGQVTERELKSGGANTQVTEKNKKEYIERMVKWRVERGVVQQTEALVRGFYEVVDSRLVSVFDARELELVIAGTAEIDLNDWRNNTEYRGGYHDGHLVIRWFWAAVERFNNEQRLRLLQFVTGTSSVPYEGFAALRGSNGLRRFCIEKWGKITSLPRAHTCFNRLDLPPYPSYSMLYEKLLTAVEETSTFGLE

B1: ALFA-tagged TXNIP (thioredoxin interacting protein), expressed in HEK293T, Q9H3M7 PPCY331AACA (protein)
chain: MVMFKKIKSFEVVFNDPEKVYGSGEKVAGRVIVEVCEVTRVKAVRILACGVAKVLWMQGSQQCKQTSEYLRYEDTLLLEDQPTGENEMVIMRPGNKYEYKFGFELPQGPLGTSFKGKYGCVDYWVKAFLDRPSQPTQETKKNFEVVDLVDVNTPDLMAPVSAKKEKKVSCMFIPDGRVSVSARIDRKGFCEGDEISIHADFENTCSRIVVPKAAIVARHTYLANGQTKVLTQKLSSVRGNHIISGTCASWRGKSLRVQKIRPSILGCNILRVEYSLLIYVSVPGSKKVILDLPLVIGSRSGLSSRTSSMASRTSSEMSWVDLNIPDTPEAAACAMDVIPEDHRLESPTTPLLDDMDGSQDSPIFMYAPEFKFMPPPTYTEVDPCILNNNVQ
Q: What does the source list for B1?
A: response (YFP-NEDD4, P46934; printed p=0.2365 against ALFA-TXNIP): 35 A.U; other: log2 PPxY331/WT [1]: -6.5 log2

B2: ALFA-tagged TXNIP (thioredoxin interacting protein), expressed in HEK293T, Q9H3M7 PPCY331AACA; PPTY375AATA (protein)
chain: B1 chain with P375A, P376A, Y378A
Q: How did the response (YFP-NEDD4, P46934; printed p<0.0001 against ALFA-TXNIP) turn out when B2 was run?
A: The response was 19 A.U.

Q: And the other: log2 PPxY/WT ([1]; volcano plot)?
A: Its other: log2 PPxY/WT is -6.6 log2.

Reference: publication PMC12669767
